Assay results as given in patent publication US20070256687A1, “Enhanced Medical Product” (priority 2004, published 2007).

Experiment: Emitted dose of volumetrically dosed API/excipient mixtures delivered by a proprietary DPI
Type: physicochemical
Excerpt: In the course of developing methods and products according to the present invention different APIs were mixed with excipients in different ratios. The objectives were to find inter alia suitable formulations and methods of filling doses, but also to optimize inhaler techniques and interaction between inhaler and dose container. Table 1 below discloses some examples of volumetrically dosed mixtures API/excipient and the resulting emitted dose when delivered by a proprietary DPI. […] The objective was to find suitable excipients and to see how different mixing ratios affected the emitted dose. The mixtures were produced under laboratory conditions in small quantities and remained quasi-stable under the run of tests. The emitted dose as percentage of total recovered dose was measured and the results were used in the development of the current invention.

[1] = excipient Mannitole, ratio API/excipient 50/50, proprietary DPI
[2] = excipient Respitose®, ratio API/excipient 20/80, proprietary DPI

insulin [Micronized insulin]
Emitted Dose in % of recovered dose [1]: 83 % of recovered dose
Retention in % of recovered dose [1]: 17 % of recovered dose
Emitted Dose in % of recovered dose [2]: 93 % of recovered dose
Retention in % of recovered dose [2]: 7 % of recovered dose
